In article PMC9482650, “Quantitative fragmentomics allow affinity mapping of interactomes” (Nature Communications, 2022) one finds pKd data, which are given here for 1 molecule.

Test in all cases: holdup assay
What all share (conditions): plain residues with an end cap or a label only (N-terminal biotin on a linker: none)

In experiment [1] the target is T1, MAGI2_1, Q86UL8.
T1 sequence (Q86UL8 12-111, limits assumed, looked up): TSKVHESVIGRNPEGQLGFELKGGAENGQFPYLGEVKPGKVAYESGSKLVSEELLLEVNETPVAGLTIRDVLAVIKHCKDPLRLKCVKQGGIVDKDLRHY

Experiment [2] concerns the target T2, MPDZ_2, O75970.
T2 sequence (O75970 252-347, limits assumed, looked up): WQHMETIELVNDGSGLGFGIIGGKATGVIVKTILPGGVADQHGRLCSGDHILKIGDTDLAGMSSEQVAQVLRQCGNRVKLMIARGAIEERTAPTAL

Experiment [3] has as its target GRIP2_2, Q9C0E4.
The target in experiment [4] is T3, PDZD7_1, Q9H5P4.
T3 sequence (Q9H5P4 81-178, limits assumed, looked up): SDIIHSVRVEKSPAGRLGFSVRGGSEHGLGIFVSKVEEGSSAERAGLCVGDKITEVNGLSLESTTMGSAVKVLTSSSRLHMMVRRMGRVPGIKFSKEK

Experiment [5] addresses MAGI3_5, Q5TCQ9.
Experiment [6] deals with PDZD9, Q8IXQ8.
Chain of PDZD9, Q8IXQ8 (Q8IXQ8 23-120): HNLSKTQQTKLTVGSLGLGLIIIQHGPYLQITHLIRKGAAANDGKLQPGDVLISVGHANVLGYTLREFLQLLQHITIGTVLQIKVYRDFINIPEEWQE
The target in experiment [7] is T4, MPP5, Q8N3R9.
T4 sequence (Q8N3R9 251-346, limits assumed, looked up): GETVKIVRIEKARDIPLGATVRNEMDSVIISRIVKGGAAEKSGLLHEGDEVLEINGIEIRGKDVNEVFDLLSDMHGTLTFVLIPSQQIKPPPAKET

Experiment [8] deals with NHERF4_3, Q86UT5.
Chain of NHERF4_3, Q86UT5 (Q86UT5 325-412): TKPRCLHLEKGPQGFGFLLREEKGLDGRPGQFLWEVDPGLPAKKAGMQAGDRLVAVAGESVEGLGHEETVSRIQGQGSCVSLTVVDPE
The target in experiment [9] is Inadl_7, Q8NI35.
Chain of Inadl_7, Q8NI35 (Q8NI35 1219-1332): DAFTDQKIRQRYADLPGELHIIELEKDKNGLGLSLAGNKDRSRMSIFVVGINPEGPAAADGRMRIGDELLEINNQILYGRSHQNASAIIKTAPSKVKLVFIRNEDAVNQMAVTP
Experiment [10] has as its target RGS3, P49796-9.
Experiment [11] deals with LIMK1, P53667.
Chain of LIMK1, P53667 (P53667 155-268): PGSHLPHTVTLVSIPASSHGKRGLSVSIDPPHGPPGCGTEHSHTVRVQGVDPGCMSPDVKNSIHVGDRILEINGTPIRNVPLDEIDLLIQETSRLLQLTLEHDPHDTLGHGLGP
The target in experiment [12] is T5, SHROOM4, Q9ULL8.
T5 sequence (Q9ULL8 5-102, limits assumed, looked up): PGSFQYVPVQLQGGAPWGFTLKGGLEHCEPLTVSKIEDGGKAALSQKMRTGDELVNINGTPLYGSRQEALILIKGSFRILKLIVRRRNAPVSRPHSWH

Experiment [13] has as its target T6, DVL1, O14640.
T6 sequence (O14640 246-333, limits assumed, looked up): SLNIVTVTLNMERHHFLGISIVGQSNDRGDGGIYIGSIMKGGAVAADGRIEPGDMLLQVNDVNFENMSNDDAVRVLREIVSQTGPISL

Experiment [14] has as its target TJP1_3, Q07157.
The target of experiment [15] is MAGI3_3, Q5TCQ9.
Chain of MAGI3_3, Q5TCQ9 (Q5TCQ9 572-655): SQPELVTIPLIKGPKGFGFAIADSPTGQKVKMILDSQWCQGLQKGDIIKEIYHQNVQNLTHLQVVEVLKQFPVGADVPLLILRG
For experiment [16], the target named is SCRIB_4, Q14160.
Chain of SCRIB_4, Q14160 (Q14160 1095-1204): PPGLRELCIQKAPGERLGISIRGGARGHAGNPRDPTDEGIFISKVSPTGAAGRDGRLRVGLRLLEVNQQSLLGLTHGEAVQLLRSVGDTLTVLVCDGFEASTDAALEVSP
Experiment [17] deals with T7, SHROOM3, Q8TF72.
T7 sequence (Q8TF72 20-120, limits assumed, looked up): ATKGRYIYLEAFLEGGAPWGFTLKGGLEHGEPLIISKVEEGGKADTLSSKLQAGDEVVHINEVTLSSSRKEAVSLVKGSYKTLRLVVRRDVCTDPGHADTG

Experiment [18] addresses PARD3_1, Q8TEW0.
Experiment [19] deals with MAST3, O60307.
Chain of MAST3, O60307 (O60307 945-1048): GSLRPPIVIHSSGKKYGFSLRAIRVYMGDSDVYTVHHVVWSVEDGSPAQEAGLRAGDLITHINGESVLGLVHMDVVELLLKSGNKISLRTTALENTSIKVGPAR
Experiment [20] addresses T8, INTU, Q9ULD6.
T8 sequence (Q9ULD6 180-273, limits assumed, looked up): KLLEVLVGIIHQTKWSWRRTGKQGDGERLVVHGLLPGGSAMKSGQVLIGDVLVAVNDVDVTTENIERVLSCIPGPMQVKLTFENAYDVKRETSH

For experiment [21], the target named is T9, SHANK2, Q9UPX8.
T9 sequence (Q9UPX8 621-730, limits assumed, looked up): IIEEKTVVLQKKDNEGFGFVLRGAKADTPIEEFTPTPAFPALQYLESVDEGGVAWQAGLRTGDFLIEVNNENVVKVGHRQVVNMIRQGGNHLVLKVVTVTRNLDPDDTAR

Experiment [22] deals with T10, MPDZ_12, O75970.
T10 sequence (O75970 1857-1958, limits assumed, looked up): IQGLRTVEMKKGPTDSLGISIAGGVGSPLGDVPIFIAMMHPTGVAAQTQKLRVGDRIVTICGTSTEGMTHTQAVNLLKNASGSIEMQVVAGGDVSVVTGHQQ

The target in experiment [23] is T11, PCLO, Q9Y6V0.
T11 sequence (Q9Y6V0 4491-4600, limits assumed, looked up): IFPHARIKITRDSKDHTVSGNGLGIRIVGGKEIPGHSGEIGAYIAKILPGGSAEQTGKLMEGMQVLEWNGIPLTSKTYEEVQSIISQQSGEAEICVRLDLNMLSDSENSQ

The target of experiment [24] is T12, RGS12, O14924.
T12 sequence (O14924 17-108, limits assumed, looked up): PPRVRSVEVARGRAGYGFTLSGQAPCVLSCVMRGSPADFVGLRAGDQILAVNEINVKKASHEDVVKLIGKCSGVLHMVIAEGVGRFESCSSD

One may read the pKd as the negative decadic logarithm of the Kd, by convention in mol/L.

Chain of GRIP2_2, Q9C0E4 (Q9C0E4 137-245): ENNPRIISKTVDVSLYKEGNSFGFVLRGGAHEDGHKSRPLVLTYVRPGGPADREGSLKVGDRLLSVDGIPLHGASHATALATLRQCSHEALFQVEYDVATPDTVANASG
Chain of PARD3_1, Q8TEW0 (Q8TEW0 264-372): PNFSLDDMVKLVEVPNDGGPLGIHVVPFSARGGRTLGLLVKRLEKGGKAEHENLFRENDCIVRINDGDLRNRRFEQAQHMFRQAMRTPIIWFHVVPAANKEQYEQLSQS
Chain of TJP1_3, Q07157 (Q07157 416-512): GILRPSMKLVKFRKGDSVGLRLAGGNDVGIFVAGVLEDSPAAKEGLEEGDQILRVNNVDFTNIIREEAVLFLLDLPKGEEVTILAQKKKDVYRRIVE
Chain of MAGI3_5, Q5TCQ9 (Q5TCQ9 847-941): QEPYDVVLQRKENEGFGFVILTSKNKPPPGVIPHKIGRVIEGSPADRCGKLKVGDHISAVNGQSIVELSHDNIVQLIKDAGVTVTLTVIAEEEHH
Chain of RGS3, P49796-9 (P49796 other isoform, or with tags, fused parts or gaps): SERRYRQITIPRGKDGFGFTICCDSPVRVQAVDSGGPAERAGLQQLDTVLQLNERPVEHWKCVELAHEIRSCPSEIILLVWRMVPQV

B1: SARS-CoV2-E, P0DTC4 (peptide)
chain: NLNSSRVPDLLV
As for B1, the negative logarithm of the Kd (pKd) entry was “below the threshold” in experiment [1]; “below the threshold” in experiment [2]; “below the threshold” in experiment [3]; “below the threshold” in [4]; “below the threshold” in experiment [5]; 3.94 in experiment [6]. In addition, the pKd in experiment [7] was 4.01; in [8], “below the threshold”; in experiment [9], “below the threshold”; in experiment [10] it was “below the threshold”; in experiment [11], “below the threshold”; in [12], “below the threshold”. The negative-log Kd (pKd) entry in experiment [13], in [14], in experiment [15], in experiment [16], in experiment [17] and in [18] was “below the threshold” in each case. Further, the pKd entry in experiment [19], in experiment [20], in [21], in experiment [22], in [23] and in experiment [24] was “below the threshold” throughout.
